The supplement of paper PMC9112550, “Optimization of the antimicrobial peptide Bac7 by deep mutational scanning” (BMC Biology, 2022)

Tested on: Escherichia coli TOP10
Test: shrunken log2 fold change of peptide-encoding DNA abundance (4.5 h post-induction vs induction); higher = less antimicrobial activity (less host growth inhibition)
Settings: time post-induction: 4.5 h; library: site-saturation at positions 5, 18, 19, 20
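Note: peptides expressed intracellularly from a pBAD plasmid library in pooled LB shake-flask culture, induced with 0.3% L-arabinose, DNA abundance read by NGS, three biological replicates, DESeq2 with apeglm shrinkage.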

Sequence | shrunken log2 fold change
RRIRLRPPRLPRPRPRPHDQPRP | 0.276
RRIRLRPPRLPRPRPRPHDRPRP | -0.132
RRIRLRPPRLPRPRPRPHEKPRP | 0.0162
RRIRLRPPRLPRPRPRPHFKPRP | -0.367
RRIRLRPPRLPRPRPRPHFTPRP | -0.355
RRIRLRPPRLPRPRPRPHGIPRP | -0.017
RRIRLRPPRLPRPRPRPHLAPRP | 0.053
RRIRLRPPRLPRPRPRPHPCPRP | -0.0967
RRIRLRPPRLPRPRPRPHPQPRP | 0.0301
RRIRLRPPRLPRPRPRPHPYPRP | -0.379
RRIRLRPPRLPRPRPRPHQSPRP | -0.0648
RRIRLRPPRLPRPRPRPHRVPRP | 0.0399
RRIRLRPPRLPRPRPRPHTKPRP | -0.422
RRIRLRPPRLPRPRPRPHTMPRP | -1.13
RRIRLRPPRLPRPRPRPHVDPRP | 0.0142
RRIRLRPPRLPRPRPRPHVFPRP | -0.0592
RRIRLRPPRLPRPRPRPHWTPRP | -0.015
RRIRLRPPRLPRPRPRPHYHPRP | -1.26
RRIRLRPPRLPRPRPRPHYLPRP | -0.278
RRIRLRPPRLPRPRPRPIAFPRP | -0.14
RRIRLRPPRLPRPRPRPIEAPRP | -0.00911
RRIRLRPPRLPRPRPRPIELPRP | 0.00435
RRIRLRPPRLPRPRPRPIENPRP | 0.0407
RRIRLRPPRLPRPRPRPIGLPRP | 0.00285
RRIRLRPPRLPRPRPRPIGTPRP | -0.0773

Sequence | shrunken log2 fold change
RRIRLRPPRLPRPRPRPIGWPRP | 0.156
RRIRLRPPRLPRPRPRPIHVPRP | -0.0124
RRIRLRPPRLPRPRPRPIICPRP | 0.0147
RRIRLRPPRLPRPRPRPIIDPRP | -0.256
RRIRLRPPRLPRPRPRPIITPRP | -0.613
RRIRLRPPRLPRPRPRPIKGPRP | -0.106
RRIRLRPPRLPRPRPRPIMKPRP | -0.489
RRIRLRPPRLPRPRPRPIMTPRP | -0.397
RRIRLRPPRLPRPRPRPINCPRP | -0.0463
RRIRLRPPRLPRPRPRPIQHPRP | -0.213
RRIRLRPPRLPRPRPRPIQPPRP | 0.0112
RRIRLRPPRLPRPRPRPISEPRP | 0.00295
RRIRLRPPRLPRPRPRPISGPRP | -0.462
RRIRLRPPRLPRPRPRPISSPRP | 0.106
RRIRLRPPRLPRPRPRPITCPRP | -0.513
RRIRLRPPRLPRPRPRPITPPRP | 0.163
RRIRLRPPRLPRPRPRPIVAPRP | -0.0323
RRIRLRPPRLPRPRPRPIVNPRP | -0.803
RRIRLRPPRLPRPRPRPIWTPRP | 0.0256
RRIRLRPPRLPRPRPRPIYHPRP | -0.6
RRIRLRPPRLPRPRPRPIYPPRP | -0.134
RRIRLRPPRLPRPRPRPKAHPRP | 0.125
RRIRLRPPRLPRPRPRPKCFPRP | -0.00607
RRIRLRPPRLPRPRPRPKDKPRP | 0.112
RRIRLRPPRLPRPRPRPKDTPRP | 0.0949

Sequence | shrunken log2 fold change
RRIRLRPPRLPRPRPRPKEHPRP | 0.227
RRIRLRPPRLPRPRPRPKFRPRP | -0.0412
RRIRLRPPRLPRPRPRPKGAPRP | 0.379
RRIRLRPPRLPRPRPRPKGLPRP | -0.0393
RRIRLRPPRLPRPRPRPKHCPRP | -0.207
RRIRLRPPRLPRPRPRPKHTPRP | 0.228
RRIRLRPPRLPRPRPRPKHVPRP | -0.0799
RRIRLRPPRLPRPRPRPKKRPRP | 0.277
RRIRLRPPRLPRPRPRPKLAPRP | 0.098
RRIRLRPPRLPRPRPRPKLCPRP | 0.115
RRIRLRPPRLPRPRPRPKLSPRP | 0.0605
RRIRLRPPRLPRPRPRPKNIPRP | -0.499
RRIRLRPPRLPRPRPRPKPEPRP | 0.249
RRIRLRPPRLPRPRPRPKQVPRP | -0.0171
RRIRLRPPRLPRPRPRPKRRPRP | -0.259
RRIRLRPPRLPRPRPRPKSWPRP | 0.176
RRIRLRPPRLPRPRPRPKVLPRP | -0.128
RRIRLRPPRLPRPRPRPKWRPRP | 0.39
RRIRLRPPRLPRPRPRPKYMPRP | -0.544
RRIRLRPPRLPRPRPRPLCRPRP | -0.496
RRIRLRPPRLPRPRPRPLCVPRP | 0.688
RRIRLRPPRLPRPRPRPLDHPRP | -0.1
RRIRLRPPRLPRPRPRPLEWPRP | 0.0509
RRIRLRPPRLPRPRPRPLFDPRP | -0.148
RRIRLRPPRLPRPRPRPLGQPRP | 0.0405

Sequence | shrunken log2 fold change
RRIRLRPPRLPRPRPRPLIKPRP | -0.273
RRIRLRPPRLPRPRPRPLISPRP | -0.506
RRIRLRPPRLPRPRPRPLKNPRP | -0.295
RRIRLRPPRLPRPRPRPLLGPRP | 0.0797
RRIRLRPPRLPRPRPRPLLKPRP | -0.163
RRIRLRPPRLPRPRPRPLMAPRP | -0.246
RRIRLRPPRLPRPRPRPLMWPRP | 0.115
RRIRLRPPRLPRPRPRPLPVPRP | 0.0348
RRIRLRPPRLPRPRPRPLQYPRP | -0.316
RRIRLRPPRLPRPRPRPLRDPRP | 0.356
RRIRLRPPRLPRPRPRPLTLPRP | 0.134
RRIRLRPPRLPRPRPRPLWEPRP | 0.697
RRIRLRPPRLPRPRPRPLWNPRP | -0.228
RRIRLRPPRLPRPRPRPMAHPRP | -0.944
RRIRLRPPRLPRPRPRPMAVPRP | -0.0225
RRIRLRPPRLPRPRPRPMDCPRP | -0.0117
RRIRLRPPRLPRPRPRPMDFPRP | -0.0499
RRIRLRPPRLPRPRPRPMDPPRP | 0.0507
RRIRLRPPRLPRPRPRPMEAPRP | -0.00122
RRIRLRPPRLPRPRPRPMEGPRP | 0.0303
RRIRLRPPRLPRPRPRPMEWPRP | -0.0102
RRIRLRPPRLPRPRPRPMGTPRP | -0.0465
RRIRLRPPRLPRPRPRPMGVPRP | -0.0231
RRIRLRPPRLPRPRPRPMHNPRP | -0.429
RRIRLRPPRLPRPRPRPMIVPRP | -0.199

Sequence | shrunken log2 fold change
RRIRLRPPRLPRPRPRPMKKPRP | 0.0162
RRIRLRPPRLPRPRPRPMKPPRP | -0.0332
RRIRLRPPRLPRPRPRPMKSPRP | 0.00719
RRIRLRPPRLPRPRPRPMLMPRP | -0.177
RRIRLRPPRLPRPRPRPMLVPRP | -0.225
RRIRLRPPRLPRPRPRPMMEPRP | 0.195
RRIRLRPPRLPRPRPRPMMLPRP | -0.335
RRIRLRPPRLPRPRPRPMMYPRP | -0.0922
RRIRLRPPRLPRPRPRPMNCPRP | -0.507
RRIRLRPPRLPRPRPRPMPCPRP | -0.12
RRIRLRPPRLPRPRPRPMTDPRP | -0.189
RRIRLRPPRLPRPRPRPMTMPRP | 0.024
RRIRLRPPRLPRPRPRPMVEPRP | -0.0178
RRIRLRPPRLPRPRPRPMWPPRP | -0.0364
RRIRLRPPRLPRPRPRPNAHPRP | -0.154
RRIRLRPPRLPRPRPRPNCNPRP | -0.535
RRIRLRPPRLPRPRPRPNCRPRP | 0.00739
RRIRLRPPRLPRPRPRPNDCPRP | 0.0412
RRIRLRPPRLPRPRPRPNENPRP | -0.189
RRIRLRPPRLPRPRPRPNFIPRP | -0.228
RRIRLRPPRLPRPRPRPNFMPRP | -0.117
RRIRLRPPRLPRPRPRPNFNPRP | 0.597
RRIRLRPPRLPRPRPRPNFSPRP | -0.00932
RRIRLRPPRLPRPRPRPNFWPRP | 0.199
RRIRLRPPRLPRPRPRPNGDPRP | -0.00192

Sequence | shrunken log2 fold change
RRIRLRPPRLPRPRPRPNGGPRP | -0.01
RRIRLRPPRLPRPRPRPNGWPRP | 0.044
RRIRLRPPRLPRPRPRPNILPRP | -0.634
RRIRLRPPRLPRPRPRPNIWPRP | -0.0307
RRIRLRPPRLPRPRPRPNKIPRP | -0.243
RRIRLRPPRLPRPRPRPNLIPRP | -0.117
RRIRLRPPRLPRPRPRPNNRPRP | -0.79
RRIRLRPPRLPRPRPRPNNVPRP | -0.395
RRIRLRPPRLPRPRPRPNQDPRP | -0.0883
RRIRLRPPRLPRPRPRPNRQPRP | -0.407
RRIRLRPPRLPRPRPRPNRWPRP | 0.254
RRIRLRPPRLPRPRPRPNSWPRP | -0.0901
RRIRLRPPRLPRPRPRPNTEPRP | 0.019
RRIRLRPPRLPRPRPRPNTMPRP | -0.501
RRIRLRPPRLPRPRPRPNTYPRP | -0.522
RRIRLRPPRLPRPRPRPNVRPRP | -0.00281
RRIRLRPPRLPRPRPRPNYLPRP | -0.377
RRIRLRPPRLPRPRPRPPCKPRP | 0.15
RRIRLRPPRLPRPRPRPPCRPRP | 0.0548
RRIRLRPPRLPRPRPRPPFAPRP | 0.543
RRIRLRPPRLPRPRPRPPFDPRP | 0.312
RRIRLRPPRLPRPRPRPPFHPRP | -0.0331
RRIRLRPPRLPRPRPRPPFWPRP | 0.308
RRIRLRPPRLPRPRPRPPFYPRP | -0.185
RRIRLRPPRLPRPRPRPPHEPRP | 0.269
